From PMC7089606 (Journal of Molecular Biology, 2010)

B1: DmCPD1Bs (D. melanogaster carboxypeptidase D variant 1B short) (Drosophila melanogaster) (protein)
chain: YTIKEDESFLQQPHYASQEQLEDLFAGLEKAYPNQAKVHFLGRSLEGRNLLALQISRNTRSRNLLTPPVKYIANMHGDETVGRQLLVYMAQYLLGNHERISDLGQLVNSTDIYLVPTMNPDGYALSQEGNCESLPNYVGRGNAANIDLNRDFPDRLEQSHVHQLRAQSRQPETAALVNWIVSKPFVLSANFHGGAVVASYPYDNSLAHNECCEESLTPDDRVFKQLAHTYSDNHPIMRKGNNCNDSFSGGITNGAHWYELSGGMQDFNYAFSNCFELTIELSCCKYPAASTLPQEWQRNKASLLQLLRQAHIGIKGLVTDASGFPIADANVYVAGLEEKPMRTSKRGEYWRLLTPGLYSVHASAFGYQTSAPQQVRVTNDNQEALRLDFKLAPVETNFDGISSFYSPYYF
B2: human CPB (hCPB) (Homo sapiens) (protein)
chain: ATGHSYEKYNKWETIEAWTQQVATENPALISRSVIGTTFEGRAIYLLKVGKAGQNKPAIFMDCGFHAREWISPAFCQWFVREAVRTYGREIQVTELLDKLDFYVLPVLNIDGYIYTWTKSRFWRKTRSTHTGSSCIGTDPNRNFDAGWCEIGASRNPCDETYCGPAAESEKETKALADFIRNKLSSIKAYLTIHSYSQMMIYPYSYAYKLGENNAELNALAKATVKELASLHGTKYTYGPGATTIYPAAGGSDDWAYDQGIRYSFTFELRDTGRYGFLLPESQIRATCEETFLAIKYVASYVLEHLY

Experiments:
[1] = recombinant expression yield in P. pastoris; conditions: glycan lost; control: wild type
[2] = molecular target: T1, DmCPD1Bs (D. melanogaster carboxypeptidase D variant 1B short) (Drosophila melanogaster, UniProt P42787); assay: crystal structure at […] Å; type: biochemical
T1 sequence (P42787 26-435 isoform P42787-7): B1 chain

purified protein = substrate: N=C(N)NCCC[C@H](NC(=O)CNC(=O)c1ccccc1)C(=O)O; assay: purified protein; conditions: Zn2+

| Molecule | expression_or_secretion [1] | Ki [2] [nM] | Km (purified protein) [µM] | kcat (purified protein) [s⁻¹] | kcat/Km (purified protein) [M⁻¹ s⁻¹] |
| --- | --- | --- | --- | --- | --- |
| DmCPD1Bs (carboxypeptidase D variant 1B short, svr-PF): N133Q | decreases | – | – | – | – |
| N=C(N)NCCSC(CC(=O)O)C(=O)O (stereo not drawn) [GEMSA, 2-guanidinoethyl-mercaptosuccinic acid] | – | 670 ± 80 | – | – | – |
| DmCPD1Bs (carboxypeptidase D variant 1B short, svr-PF): N269Q | decreases | – | – | – | – |
| B1 | – | – | 1112 ± 167 | 38.8 ± 4.1 | 34900 |
| B2 | – | – | 485.3 ± 62.5 | 254 ± 11.9 | 523000 |
